This is an account of results in patent publication US20130039933.

Series [1] deals with A366 peptide (STING peptide substrate with alanine at 366).
In series [2] the target is S366 peptide (STING peptide substrate with serine 366).

B1: GRK7 (protein)
chain: MVDMGALDNLIANTAYLQARKPSDCDSKELQRRRRSLALPGLQGCAELRQKLSLNFHSLCEQQPIGRRLFRDFLATVPTFRKAATFLEDVQNWELAEEGPTKDSALQGLVATCASAPAPGNPQPFLSQAVATKCQAATTEEERVAAVTLAKAEAMAFLQEQPFKDFVTSAFYDKFLQWKLFEMQPVSDKYFTEFRVLGKGGFGEVCAVQVKNTGKMYACKKLDKKRLKKKGGEKMALLEKEILEKVSSPFIVSLAYAFESKTHLCLVMSLMNGGDLKFHIYNVGTRGLDMSRVIFYSAQIACGMLHLHELGIVYRDMKPENVLLDDLGNCRLSDLGLAVEMKGGKPITQRAGTNGYMAPEILMEKVSYSYPVDWFAMGCSIYEMVAGRTPFKDYKEKVSKEDLKQRTLQDEVKFQHDNFTEEAKDICRLFLAKKPEQRLGSREKSDDPRKHHFFKTINFPRLEAGLIEPPFVPDPSVVYAKDIAEIDDFSEVRGVEFDDKDKQFFKNFATGAVPIAWQEEIIETGLFEELNDPNRPTGCEEGNSSKSGVCLLL
Turning to B1, the Activity (cpm) in series [1] worked out at 7260 cpm. Besides, in series [2], the Activity (cpm) is 13100 cpm and the Fold induction was found to be 1.81 fold.

B2: ULK2 (protein)
chain: MEVVGDFEYSKRDLVGHGAFAVVFRGRHRQKTDWEVAIKSINKKNLSKSQILLGKEIKILKELQHENIVALYDVQELPNSVFLVMEYCNGGDLADYLQAKGTLSEDTIRVFLHQIAAAMRILHSKGIIHRDLKPQNILLSYANRRKSSVSGIRIKIADFGFARYLHSNMMAATLCGSPMYMAPEVIMSQHYDAKADLWSIGTVIYQCLVGKPPFQANSPQDLRMFYEKNRSLMPSIPRETSPYLANLLLGLLQRNQKDRMDFEAFFSHPFLEQGPVKKSCPVPVPMYSGSVSGSSCGSSPSCRFASPPSLPDMQHIQEENLSSPPLGPPNYLQVSKDSASTSSKNSSCDTDDFVLVPHNISSDHSCDMPVGTAGRRASNEFLVCGGQCQPTVSPHSETAPIPVPTQIRNYQRIEQNLTSTASSGTNVHGSPRSAVVRRSNTSPMGFLRPGSCSPVPADTAQTVGRRLSTGSSRPYSPSPLVGTIPEQFSQCCCGHPQGHDSRSRNSSGSPVPQAQSPQSLLSGARLQSAPTLTDIYQNKQKLRKQHSDPVCPSHTGAGYSYSPQPSRPGSLGTSPTKHLGSSPRSSDWFFKTPLPTIIGSPTKTTAPFKIPKTQASSNLLALVTRHGPAEE
In series [1], B2 gave an Activity (cpm) of 7380 cpm. In series [2], the Activity (cpm) stood at 156000 cpm and the Fold induction is 21.1 fold.
